Test results reported in US20110293511A1, “SPECIFIC BINDING PROTEINS AND USES THEREOF” (priority 2009, published 2011).
Marks after values point to notes of the source that are not given here.

How the values were obtained:
[1] = test system: glioblastomas not preselected for EGFR status; experiment: immunohistochemistry of 46 unselected glioblastomas; format: binding, human
Method: (§1) Immunohistochemical analysis was performed using […] sections of fresh frozen tissue applied to histology slides and fixed for 10 minutes in cold acetone. Bound primary antibody was detected with biotinylated horse anti-mouse antibody followed by an avidin-biotin-complex reaction. Diaminobenzidine tetrahydrochloride (DAB) was used as chromogen. The extent of the immunohistochemical reactivity in tissues was estimated by light microscopy and graded according to the number of immunoreactive cells in 25% increments as follows:
The 528 antibody was strongly and homogeneously positive in all samples except two (Nos. 27 and 29) (44/46, 95.7%).

[2] = target: T1, Peptide C (C-terminal biotinylated de2-7 peptide) (Homo sapiens, UniProt P00533, DELINS30-297G); experiment: BIAcore with immobilized Peptide C; format: binding; conditions: mAbL8A4 even at 6.25 nM, mAb806 up to 100 nM
T1 construct: purchased Biosource, Camarillo, Calif
Method: Peptide C was immobilized on a Streptavidin microsensor chip at a surface density of 350RU (+/−30RU). Serial dilutions of mAbs were tested for reactivity with the peptide. Blocking experiments using non-biotinylated peptide were performed to assess specificity.

[3] = test system: U87MG.wtEGFR brain xenografts; experiment: intracranial glioma xenograft treatment; format: in vivo, nude mice; conditions: i.p. day 0 through 14
[4] = test system: panel of 12 different malignancies; experiment: immunohistochemistry of tumor panel; format: binding, human
Method: as §1
The extent of de2-7 EGFR in other tumor types was examined using a panel of 12 different malignancies. […] This staining was strongly dependent on antibody concentration used and was considered nonspecific background reactivity.

[5] = test system: Ba/F3 cells expressing the wtEGFR; experiment: MTT proliferation assay with EGF; format: cell-based, murine; conditions: antibody 10 μg/ml
Method: Cells growing in log phase were harvested and washed twice with PBS to remove residual IL-3. […] Proliferation was determined using the MTT assay (van de Loosdrecht et al. (1994) J. Immunol. Methods. 174, 311-320).

[6] = test system: U87MG brain xenografts; experiment: intracranial glioma xenograft treatment; format: in vivo, nude mice; conditions: i.p. day 0 through 14

B1: mAb806: murine IgG2b monoclonal antibody, clone 806, ATCC PTA-3858; VH SEQ ID NO:2, VL SEQ ID NO:4 (antibody, listed as Mus musculus, V domains shown)
VH: MRVLILLWLFTAFPGVLSDVQLQESGPSLVKPSQSLSLTCTVTGYSITSDFAWNWIRQFPGNKLEWMGYISYSGNTRYNPSLKSRISITRDTSKNQFFLQLNSVTIEDTATYYCVTAGRGFPYWGQGTLVTVSA
VL: MVSTAQFLAFLLLWFPGARCDILMTQSPSSMSVSLGDTVSITCHSSQDINSNIGWLQQRPGKSFKGLIYHGTNLDDEVPSRFSGSGSGADYSLTISSLESEDFADYYCVQYAQFPWTFGGGTKLEIKR
[1]; glioblastoma #1, EGFR Amp. A, 5′ MUT
  Immunoreactivity: ++++ (++++=>75%)
[1]; glioblastoma #2, EGFR Amp. N, WT
  Immunoreactivity: ++++ (++++=>75%)
[1]; glioblastoma #3, EGFR Amp. N, A2
  Immunoreactivity: ++++ (++++=>75%)
[1]; glioblastoma #4, EGFR Amp. N, WT
  Immunoreactivity: ++++ (++++=>75%)
[1]; glioblastoma #5, EGFR Amp. N, 5′ MUT
  Immunoreactivity: ++++ (++++=>75%)
[1]; glioblastoma #6, EGFR Amp. A, WT
  Immunoreactivity: ++++ (++++=>75%)
[1]; glioblastoma #7, EGFR Amp. N, 5′ MUT
  Immunoreactivity: ++++ (++++=>75%)
[1]; glioblastoma #8, EGFR Amp. A, 5′ MUT
  Immunoreactivity: ++++ (++++=>75%)
[1]; glioblastoma #9, EGFR Amp. A, WT
  Immunoreactivity: ++++ (++++=>75%)
[1]; glioblastoma #10, EGFR Amp. N, WT
  Immunoreactivity: neg.
[1]; glioblastoma #11, EGFR Amp. A, 5′ MUT
  Immunoreactivity: ++ (++=25-50%)
[1]; glioblastoma #12, EGFR Amp. A, 5′ MUT
  Immunoreactivity: ++ (++=25-50%)
[1]; glioblastoma #13, EGFR Amp. N, WT
  Immunoreactivity: ++++ (++++=>75%)
[1]; glioblastoma #14, EGFR Amp. Nd, nd
  Immunoreactivity: neg.
[1]; glioblastoma #15, EGFR Amp. N, WT
  Immunoreactivity: ++ (++=25-50%)
[1]; glioblastoma #16, EGFR Amp. N, nd
  Immunoreactivity: neg.
[1]; glioblastoma #17, EGFR Amp. N, WT
  Immunoreactivity: neg.
[1]; glioblastoma #18, EGFR Amp. A, 5′ MUT
  Immunoreactivity: ++++ (++++=>75%)
[1]; glioblastoma #19, EGFR Amp. N, WT
  Immunoreactivity: ++++ (++++=>75%)
[1]; glioblastoma #20, EGFR Amp. N, WT
  Immunoreactivity: neg.
[1]; glioblastoma #21, EGFR Amp. N, WT
  Immunoreactivity: ++++ (++++=>75%)
[1]; glioblastoma #22, EGFR Amp. N, WT
  Immunoreactivity: neg.
[1]; glioblastoma #23, EGFR Amp. N, 5′ MUT
  Immunoreactivity: ++++ (++++=>75%)
[1]; glioblastoma #24, EGFR Amp. A, WT
  Immunoreactivity: ++++ (++++=>75%)
[1]; glioblastoma #25, EGFR Amp. N, WT
  Immunoreactivity: neg.
[1]; glioblastoma #26, EGFR Amp. A, 5′ MUT
  Immunoreactivity: ++++ (++++=>75%)
[1]; glioblastoma #27, EGFR Amp. N, WT
  Immunoreactivity: neg.
[1]; glioblastoma #28, EGFR Amp. N, WT
  Immunoreactivity: neg.
[1]; glioblastoma #29, EGFR Amp. N, WT
  Immunoreactivity: neg.
[1]; glioblastoma #30, EGFR Amp. N, WT
  Immunoreactivity: ++++ (++++=>75%)
[1]; glioblastoma #31, EGFR Amp. N, nd
  Immunoreactivity: neg.
[1]; glioblastoma #32, EGFR Amp. N, 5′ MUT
  Immunoreactivity: +++ (+++=50-75%)
[1]; glioblastoma #33, EGFR Amp. A, 5′ MUT
  Immunoreactivity: ++++ (++++=>75%)
[1]; glioblastoma #34, EGFR Amp. N, WT
  Immunoreactivity: +++ (+++=50-75%)
[1]; glioblastoma #35, EGFR Amp. A, 5′ MUT
  Immunoreactivity: neg.
[1]; glioblastoma #36, EGFR Amp. A, 5′ MUT
  Immunoreactivity: ++ (++=25-50%)
[1]; glioblastoma #37, EGFR Amp. A, 5′ MUT
  Immunoreactivity: + (+=5-25%)
[1]; glioblastoma #38, EGFR Amp. N, WT
  Immunoreactivity: neg.
[1]; glioblastoma #39, EGFR Amp. N, 5′ MUT
  Immunoreactivity: neg.
[1]; glioblastoma #40, EGFR Amp. A, WT
  Immunoreactivity: ++++ (++++=>75%)
[1]; glioblastoma #41, EGFR Amp. N, WT
  Immunoreactivity: neg.
[1]; glioblastoma #42, EGFR Amp. A, WT
  Immunoreactivity: ++++ (++++=>75%)
[1]; glioblastoma #43, EGFR Amp. nd, nd
  Immunoreactivity: neg.
[1]; glioblastoma #44, EGFR Amp. N, WT
  Immunoreactivity: neg.
[1]; glioblastoma #45, EGFR Amp. N, WT
  Immunoreactivity: neg.
[1]; glioblastoma #46, EGFR Amp. N, nd
  Immunoreactivity: neg.
[1]; panel of 46
  positive cases / glioblastomas: 27/46
[2]
  reactivity with Peptide C: did not show detectable specific reactivity
[3]
  median survival: 23 days
[4]; Colonic carcinoma
  positive tumors / tumors tested: 0/10
[4]; Head + neck cancer (sqcc)
  positive tumors / tumors tested: 7/11
[4]; Leiomyosarcoma
  positive tumors / tumors tested: 0/5
[4]; Liposarcoma
  positive tumors / tumors tested: 0/5*
[4]; Lung (sqcc, adeno, neuroend)
  positive tumors / tumors tested: 6/12
[4]; Malignant melanoma metastases
  positive tumors / tumors tested: 0/10
[4]; Mammary gland
  positive tumors / tumors tested: 1/10
[4]; Mfh Malignant fibrous histiocytoma
  positive tumors / tumors tested: 0/5*
[4]; Ovary (serous-papillary)
  positive tumors / tumors tested: 0/5
[4]; Seminoma
  positive tumors / tumors tested: 0/10
[4]; Synovial sarcoma
  positive tumors / tumors tested: 0/5*
[4]; Urinary bladder (tcc, sqcc, adeno)
  positive tumors / tumors tested: 3/10*
[4]; head and neck tumors
  tumors with positive staining: 64%
[4]; lung carcinomas
  tumors with positive staining: 50%
[4]; urinary tumors
  tumors with positive staining: 30%
[5]
  effect on EGF-induced proliferation: no effect
[6]
  effect on survival: did not extend survival
